Tests used:
Format in all cases: biochemical
[1] = Integrated reaction: Neu5Ac production from GlcNAc and pyruvate at alkaline pH (TBA assay)
Procedure: For ManNAc reactions, the buffer used was HEPES, pH 8.0. […] Experiments were performed in triplicate. For ManNAc experiments, aliquots were sampled after 0.5, 1.0, 1.5, 2.5 and 4.0 h. For GlcNAc experiments, aliquots were sampled after 12, 24, 36, 48 and 72 h. Reactions were terminated by addition of 2 μl concentrated H2SO4. The time needed for N-acetylneuraminic acid (Neu5Ac) production to get started under these conditions was known to take longer time based on initial test experiments. The thiobarbituric acid (TBA) assay procedure was followed to determine the amount of Neu5Ac produced. The activity was corrected for a blank value. The blank contained all the reaction components except for enzyme.
Initially, also glycine buffer was tested at pH 10.5 and pH 11.0 for the reactions with GlcNAc. GlcNAc will chemically epimerize to ManNAc at pH values above 9.0, which the enzyme will use as substrate for the production of Neu5Ac. The epimerization is pH dependent and will increase with increasing pH. Production of Neu5Ac was higher in CAPS buffer compared to glycine buffer, so this was chosen for further experiments.

[2] = Temperature shift experiment on production yield of Neu5Ac; details: shifting reaction temperature from 23° C. to 4° C.; 50 mM pyruvate, 5 mM ManNAc
Procedure: The effect of substrate ratio on the conversion yield of Neu5Ac was studied by varying the pyruvate concentration while the concentration of ManNAc was kept constant. The pyruvate concentration ranged from 2.5 to 70 mM, whereas the ManNAc concentration was 5 mM, resulting in a pyruvate:ManNAc ratio ranging from 0.5 to 14. The condensation reaction mixture containing different ratios of pyruvate and ManNAc along with 124 mM HEPES buffer pH 8.0 and enzyme was incubated at room temperature for 7.5 h. […] Thus, a temperature shift experiment was carried out to see how much the Neu5Ac production could be increased by altering the equilibrium once it had been achieved. For a temperature shift experiment, the reaction mixture (enzyme, 50 mM pyruvate, 5 mM ManNAc, 124 mM HEPES buffer pH 8.0) was incubated at room temperature for 7.5 h and after reaching equilibrium it was shifted to 4° C. and incubated for 15 h. As a control, one reaction was kept at room temperature and another at 4° C. for all the time. The difference in yield between the temperature shifted and non-shifted reactions were calculated. The standard TBA assay was used to assess the activity.

[3] = Comparative specific activity, cleavage reaction (TBA assay)
Procedure: The cleavage activity was determined by incubating 50 μl of a reaction mixture containing 5 mM Neu5Ac, 124 mM HEPES pH 8.0 and different concentrations of enzyme depending on assay type at selected temperatures for the required amount of time. Termination of the reactions and subsequent steps of the assay are as described above. The decrease in absorbance is correlated to the increase in cleavage activity.
Standard reaction mixtures were incubated at room temperature for 1 h before being subjected to the TBA assay.

B1: AsNAL: N-acetylneuraminate lyase isolated from the psychrophilic bacterium Aliivibrio salmonicida LFI1238, recombinantly expressed in E. coli (protein, listed as Aliivibrio salmonicida)
chain: MKKLTGLIAAPHTPFDSSSNVNFEEIDKIAKHLINDGVKGIYVCGTTGEGIHCSVEERKAIAERWVSACNHKLDIIVHTGALSIVDTLELTRHADTLDILATSAIGPCFFKPGSVSDLVEYCATIAAAAPSKGFYYYHSGMSGVNLNMEEFLIQADKRIPNLSGLKFNSGDLYEYQRCLRACDGKFDVPFGVDEFLPGALAVGAKSAVGSTYNYAAPHFNSIIEAFNKGDHDAVFNKMTNVIELIRVLVEFGGVAAGKIAMELHDINAGDPRLPLMPLSAEQKLTVVEKMRAANFLK
production of Neu5Ac relative to highest amount obtained with pyruvate and ManNAc 4:1 at pH 8.0 ([1]; pyruvate and GlcNAc 4:1, CAPS pH 11.0, 48 h): around 60%
production of Neu5Ac (in words) ([1]; pyruvate and GlcNAc, CAPS pH 11.5): able to produce Neu5Ac in the same range as at pH 11.0
increase in yield of Neu5Ac [2]: 30%
specific activity of the cleavage reaction, higher than EcNAL ([3]; 4° C.): 25%
specific activity of the cleavage reaction, higher than EcNAL ([3]; 23° C.): 35%
specific activity of the cleavage reaction, higher than EcNAL ([3]; 37° C.): 35%
